Laboratory results reported in US20120135923A1, “Use of Melanocortins to Treat Dyslipidemia” (IPSEN PHARMA, S.A.S., priority 2009, published 2012).
Bridge positions count the residues as written; N and C are the ends. Square brackets hold non-standard residues; d marks the D form. 1Nal = N[C@@H](Cc1cccc2ccccc12)C(=O)O; 2Nal = N[C@@H](Cc1ccc2ccccc2c1)C(=O)O; d2Nal = N[C@H](Cc1ccc2ccccc2c1)C(=O)O

What was measured:
hMC5-R (human) [1] = molecular target: hMC5-R (human) (UniProt P33032); experiment: cell-based or functional assay
hMC1-R (human) [2] = molecular target: hMC1-R (human) (UniProt Q01726); experiment: cell-based or functional assay
hMC4-R (human) [3] = molecular target: hMC4-R (human) (UniProt P32245); experiment: cell-based or functional assay
hMC3-R (human) [4] = molecular target: hMC3-R (human) (UniProt P41968); experiment: cell-based or functional assay
[5] = molecular target: human melanocortin receptor subtype 5 (hMC5-R) (human) (UniProt P33032); experiment: [125I]-NDP-α-MSH competition, membranes
[6] = molecular target: human melanocortin receptor subtype 3 (hMC3-R) (human) (UniProt P41968); experiment: [125I]-NDP-α-MSH competition, membranes
[7] = molecular target: human melanocortin receptor subtype 1 (hMC1-R) (human) (UniProt Q01726); experiment: [125I]-NDP-α-MSH competition, membranes
[8] = molecular target: human melanocortin receptor subtype 4 (hMC4-R) (human) (UniProt P32245); experiment: [125I]-NDP-α-MSH competition, membranes
hMC5-R (human) [9] = molecular target: hMC5-R (human) (UniProt P33032); experiment: competition with [125I]-NDP-α-MSH, CHO-K1 membranes
hMC1-R (human) [10] = molecular target: hMC1-R (human) (UniProt Q01726); experiment: as above
hMC3-R (human) [11] = molecular target: hMC3-R (human) (UniProt P41968); experiment: as above
hMC4-R (human) [12] = molecular target: hMC4-R (human) (UniProt P32245); experiment: as above

Sequence of hMC3-R (human) (P41968 whole entry): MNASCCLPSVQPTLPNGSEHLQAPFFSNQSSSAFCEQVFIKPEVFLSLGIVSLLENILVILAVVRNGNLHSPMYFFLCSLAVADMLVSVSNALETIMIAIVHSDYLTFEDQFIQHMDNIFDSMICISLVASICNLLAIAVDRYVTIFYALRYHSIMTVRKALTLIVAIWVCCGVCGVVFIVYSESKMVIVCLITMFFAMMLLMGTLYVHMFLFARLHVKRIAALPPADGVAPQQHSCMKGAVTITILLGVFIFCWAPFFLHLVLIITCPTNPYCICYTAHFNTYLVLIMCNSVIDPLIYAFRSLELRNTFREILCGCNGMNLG
Sequence of human melanocortin receptor subtype 3 (hMC3-R) (human) (P41968 whole entry): as above
Sequence of hMC1-R (human) (Q01726 whole entry): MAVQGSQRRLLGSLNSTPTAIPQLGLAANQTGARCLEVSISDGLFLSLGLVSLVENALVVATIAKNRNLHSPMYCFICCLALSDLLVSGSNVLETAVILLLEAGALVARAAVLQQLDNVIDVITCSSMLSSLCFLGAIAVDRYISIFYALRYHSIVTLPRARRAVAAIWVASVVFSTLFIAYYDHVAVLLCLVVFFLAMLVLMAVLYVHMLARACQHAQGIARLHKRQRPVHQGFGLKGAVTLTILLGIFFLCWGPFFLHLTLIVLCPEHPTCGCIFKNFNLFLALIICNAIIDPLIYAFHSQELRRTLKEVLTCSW
Sequence of human melanocortin receptor subtype 1 (hMC1-R) (human) (Q01726 whole entry): as above
Sequence of human melanocortin receptor subtype 5 (hMC5-R) (human) (P33032 whole entry): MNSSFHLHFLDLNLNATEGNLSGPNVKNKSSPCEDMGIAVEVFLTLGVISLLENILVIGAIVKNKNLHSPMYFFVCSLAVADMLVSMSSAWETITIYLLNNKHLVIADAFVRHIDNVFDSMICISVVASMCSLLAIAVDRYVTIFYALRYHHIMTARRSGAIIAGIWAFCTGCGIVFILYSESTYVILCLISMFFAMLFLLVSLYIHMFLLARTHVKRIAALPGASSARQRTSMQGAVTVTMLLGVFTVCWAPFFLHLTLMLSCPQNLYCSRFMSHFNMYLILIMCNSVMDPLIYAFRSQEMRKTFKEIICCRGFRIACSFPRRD
Sequence of hMC5-R (human) (P33032 whole entry): as above
Sequence of hMC4-R (human) (P32245 whole entry): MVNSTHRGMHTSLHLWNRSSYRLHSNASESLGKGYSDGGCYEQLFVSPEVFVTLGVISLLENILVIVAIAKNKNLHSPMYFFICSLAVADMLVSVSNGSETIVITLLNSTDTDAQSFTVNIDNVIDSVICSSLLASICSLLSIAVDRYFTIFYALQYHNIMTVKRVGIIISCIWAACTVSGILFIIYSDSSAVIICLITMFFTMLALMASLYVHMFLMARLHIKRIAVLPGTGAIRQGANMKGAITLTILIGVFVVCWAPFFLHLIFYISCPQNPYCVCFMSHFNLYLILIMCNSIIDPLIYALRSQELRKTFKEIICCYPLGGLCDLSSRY
Sequence of human melanocortin receptor subtype 4 (hMC4-R) (human) (P32245 whole entry): as above

Substance	cAMP EC50 (hMC5-R (human) [1]) [nM]	cAMP EC50 (hMC1-R (human) [2])	cAMP EC50 (hMC4-R (human) [3]) [nM]	cAMP EC50 (hMC3-R (human) [4]) [nM]	further results
Ac-D-Arg-c(Asp-His-D-Phe-Arg-Trp-Ala-Lys)-NH2 (peptide; unit assumed)	297	1.48 nM	0.078	5.76	–
Ac-Nle-c(Cys-D-Cha-His-D-Phe-Arg-Trp-Cys)-NH2 (peptide; unit assumed)	45.3	0.819 nM	0.453	0.541	–
Ac-Arg-c(Asp-His-D-Phe-Arg-Trp-Ala-Lys)-NH2 (peptide; unit assumed)	467	1.39 nM	0.055	2.89	–
Hydantoin(C(O)-(D-Ala-Nle))-c(Cys-D-Ala-His-D-Phe-Arg-Trp-Cys)-NH2 (peptide)	–	–	–	–	Ki [5]: 1820 nM; Ki [6]: 63.9 nM; Ki [7]: 16 nM
Hydantoin(C(O)-(D-Arg-Gly))-c(Cys-Glu-His-D-Phe-Arg-Trp-Cys)-NH2 (peptide)	2710	–	–	–	Ki [5]: 2260 nM; Ki [8]: 2.95 nM; Ki [6]: 124 nM; Ki [7]: 9.49 nM
Ac-D-Arg-c(Cys-D-Ala-His-D-Phe-Arg-Trp-Pen)-NH2 (peptide; unit assumed)	2440	26.5 nM	–	10.5	–
Ac-1-Nal-Arg-c(Cys-D-Ala-His-D-Phe-Arg-Trp-Cys)-NH2 (peptide; unit assumed)	1320	8.67 nM	0.363	4.21	–
Ac-Nle-c(Cys-D-Ala-His-D-Phe-Arg-Trp-Cys)-NH2 (peptide; unit assumed)	420	2.4 nM	0.078	0.33	–
Ac-Nle-c(Cys-3-Pal-D-Phe-Arg-Trp-Gaba-Cys)-NH2 (peptide)	–	–	–	–	Ki (hMC5-R (human) [9]): 92.6 nM; Ki (hMC1-R (human) [10]): 21.1 nM; Ki (hMC3-R (human) [11]): 151 nM
Ac-Arg-c(Cys-D-Ala-His-D-Phe-Arg-Trp-Pen)-NH2 (peptide; unit assumed)	10000	48.3 nM	–	13.3	–
Ac-hPhe-c(Asp-His-D-2-Nal-Arg-Trp-Gaba-Lys)-NH2 (peptide)	–	–	–	–	Ki (hMC1-R (human) [10]): 0.461 nM; Ki (hMC4-R (human) [12]): 0.931 nM; Ki (hMC3-R (human) [11]): 2.45 nM
Ac-WRC[dA]H[dF]RWC-NH2 (disulfide 3-9)	2580	5.78 nM	0.219	3.95	–
Ac-D-Arg-c(Cys-D-Ala-His-D-Phe-Arg-Trp-Pen)-NH2 (peptide)	–	–	–	–	Ki (hMC5-R (human) [9]): 816 nM; Ki (hMC1-R (human) [10]): 8.29 nM; Ki (hMC3-R (human) [11]): 13.3 nM
Ac-Nle-c(Asp-His-D-Phe-Arg-Trp-Gaba-Lys)-NH2 (peptide; unit assumed)	3.48	1.37 nM	0.131	0.628	–
Ac-Cha-c(Asp-His-D-Phe-Arg-Trp-Gaba-Lys)-NH2 (peptide; unit assumed)	30.2	3.26 nM	0.0949	0.189	–
Ac-hCha-c(Asp-His-D-Phe-Arg-Trp-Gaba-Lys)-NH2 (peptide; unit assumed)	415	2.27 nM	7.24	3.32	–
Ac-D-Arg-c(Cys-D-Ala-His-D-Phe-Arg-Trp-Cys)-NH2 (peptide)	–	–	–	–	Ki (hMC5-R (human) [9]): 352 nM
Ac-Nle-c(Asp-His-D-2-Nal-Arg-Trp-β-Ala-Lys)-NH2 (peptide)	–	–	–	–	Ki (hMC1-R (human) [10]): 0.648 nM
Ac-Nle-c(Cys-D-Ala-His-D-Phe-Arg-Trp-Pen)-NH2 (peptide; unit assumed)	2240	14.3 nM	0.183	2.03	–

Substance	cAMP EC50 (hMC5-R (human) [1]) [nM]	cAMP EC50 (hMC1-R (human) [2])	cAMP EC50 (hMC4-R (human) [3]) [nM]	cAMP EC50 (hMC3-R (human) [4]) [nM]	further results
Ac-2-Nal-Arg-c(Cys-D-Ala-His-D-Phe-Arg-Trp-Cys)-NH2 (peptide; unit assumed)	1730	9.66 nM	0.275	6.11	–
Hydantoin(C(O)-(D-Ala-Gly))-c(Cys-D-Ala-His-D-Phe-Arg-Trp-Cys)-NH2 (peptide)	355	–	–	–	Ki [5]: 34.7 nM; Ki [8]: 4.28 nM; Ki [7]: 11.7 nM
Ac-hPhe-c(Asp-His-D-2-Nal-Arg-Trp-Gaba-Lys)-NH2 (peptide; unit assumed)	0.307	0.413 nM	–	–	cAMP Kb (hMC4-R (human) [3]): 0.824 nM; cAMP Kb (hMC3-R (human) [4]): 9.32 nM
Ac-Nle-c(Asp-His-D-2-Nal-Arg-Trp-Lys)-β-Ala-β-Ala-Tyr-Gly-Arg-Lys-Lys-Arg-Arg-Gln-Arg-Arg-Arg-NH2 (peptide; in nM (unit assumed))	–	1.39	–	–	cAMP Kb (hMC4-R (human) [3]): 7.94; cAMP Kb (hMC3-R (human) [4]): 16.2
Ac-Arg-c(Cys-D-Ala-His-D-2-Nal-Arg-Trp-Cys)-NH2 (peptide; unit assumed)	1110	193 nM	–	–	cAMP Kb (hMC4-R (human) [3]): 1.58 nM; cAMP Kb (hMC3-R (human) [4]): 5.72 nM
Hydantoin(C(O)-(D-Arg-Gly))-c(Cys-D-Ala-His-D-Phe-Arg-Trp-Cys)-NH2 (peptide; unit assumed)	–	11.5 nM	0.513	23.2	–
Hydantoin(C(O)-(Arg-Gly))-c(Cys-Glu-His-D-Phe-Arg-Trp-Cys)-NH2 (peptide; unit assumed)	–	8.83 nM	0.0979	7.86	–
Ac-Cha-c(Asp-His-D-2-Nal-Arg-Trp-Gaba-Lys)-NH2 (peptide; unit assumed)	0.736	1.27 nM	–	–	cAMP Kb (hMC4-R (human) [3]): 0.442 nM; cAMP Kb (hMC3-R (human) [4]): 3.02 nM
Hydantoin(C(O)-(Gly-D-Arg))-c(Cys-Glu-His-D-Phe-Arg-Trp-Cys)-NH2 (peptide)	7440	–	–	–	Ki [5]: 4540 nM; Ki [8]: 1.77 nM; Ki [6]: 78 nM; Ki [7]: 4.3 nM
Ac-CEH[d2Nal]R[2Nal]ACPPKD-NH2 (disulfide 1-8)	–	33.6	–	–	cAMP Kb (hMC4-R (human) [3]): 12.2; cAMP Kb (hMC3-R (human) [4]): 140
Ac-Nle-c(Cys-D-Ala-His-D-2-Nal-Arg-Trp-Cys)-NH2 (peptide; unit assumed)	11.8	17.6 nM	–	–	cAMP Kb (hMC4-R (human) [3]): 38.8 nM; cAMP Kb (hMC3-R (human) [4]): 12.4 nM
Hydantoin(C(O)-(Gly-Arg))-c(Cys-Glu-His-D-Phe-Arg-Trp-Cys)-NH2 (peptide; unit assumed)	–	9.97 nM	0.0687	3.63	–
Hydantoin(C(O)-(Nle-Gly))-c(Cys-Glu-His-D-Phe-Arg-Trp-Cys)-NH2 (peptide; unit assumed)	–	54.3 nM	0.177	12.2	–
Hydantoin(C(O)-(D-Arg-Gly))-c(Cys-Glu-His-D-Phe-Arg-Trp-Cys)-NH2 (peptide; unit assumed)	–	18 nM	0.16	17.1	–
Hydantoin(C(O)-(Ala-Gly))-c(Cys-D-Ala-His-D-Phe-Arg-Trp-Cys)-NH2 (peptide; unit assumed)	–	17.6 nM	0.241	2.23	–
Ac-CEH[d2Nal]R[1Nal]ACPPKD-NH2 (disulfide 1-8)	–	269	–	–	cAMP Kb (hMC4-R (human) [3]): 5.92; cAMP Kb (hMC3-R (human) [4]): 105
Hydantoin(C(O)-(Nle-Gly))-c(Cys-D-Ala-His-D-Phe-Arg-Trp-Pen)-NH2 (peptide; unit assumed)	–	17 nM	0.584	21.5	–
Ac-Nle-c(Asp-His-D-Phe-Arg-Trp-β-Ala-Lys)-NH2 (peptide; unit assumed)	2.79	0.834 nM	0.128	0.145	–
Hydantoin(C(O)-(Gly-Arg))-c(Cys-D-Ala-His-D-Phe-Arg-Trp-Cys)-NH2 (peptide; unit assumed)	–	8.85 nM	0.599	5.17	–
